This passage reports protein stability index results from the supplement of paper PMC10567573.

B1: NR2F2 (parent)
chain: NIPFFPDLQITDQVALLRLTWSEL
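Note: lentivirally expressed fusions sorted by FACS into six bins by GFP to DsRed ratio, PSI derived from sequencing read proportions per bin multiplied by bin number.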

In this data set the parent is B1. Description: protein stability index of a GFP-peptide fusion (GPS, HEK-293T) (PSI 1-6); higher = more stable. As to conditions: c terminus: a fixed tail appended.
In the case of NIPFFPDLQITDQVALLRLTWSAL, the protein stability index came out at 2.71.
As to NIPFFPDLQITDQVALLRLTWSYL, the protein stability index was found to be 2.74.
Under NIPFFPDLQITDQVALLRLTWSKL stands 1.55; under NIPFFPDLQITDQVALLRLTWSVL, 1.76; under NIPFFPDLQITDQVALLRLTWSPL, 2.24.
Under NIPFFPDLQITDQVALLRLTWSLL stands 2.57.
In the case of NNPFFPDLQITDQVALLRLTWSEL, the protein stability index came out at 2.02.
Take NSPFFPDLQITDQVALLRLTWSEL: the protein stability index was found to be 2.38.
Under NIPFFPDLQITDQVALTRLTWSEL stands 3.49.
NIPFFPDLQITDQVALMRLTWSEL: the protein stability index is 2.16.
The value for NIPFFPDLQITDQVALQRLTWSEL was 1.99.
The value for NIPFFPDLQITDQVALPRLTWSEL was 2.37.
The value for NIPFFPDLQITDQVALWRLTWSEL was 1.92; that for NIPFFPDLQITDQVALIRLTWSEL was 3.52; that for NIPFFPDLQITDQVALVRLTWSEL was 3.46.
With NIPFFPDLQITDQVALLRLTWFEL, the protein stability index was found to be 3.38.
Under NIPFFPDLQITDQVALLRLTWWEL stands 3.5; under NIPFFPDLQITDQVALLRLTWCEL, 3.38; under NIPVFPDLQITDQVALLRLTWSEL, 2.42.
In the case of NIPCFPDLQITDQVALLRLTWSEL, the protein stability index was found to be 2.63.
In the case of NIPEFPDLQITDQVALLRLTWSEL, the protein stability index came out at 2.22.
The value for NIPRFPDLQITDQVALLRLTWSEL was 1.37; that for NIPNFPDLQITDQVALLRLTWSEL was 2.79; that for NIPQFPDLQITDQVALLRLTWSEL was 2.62.
The value for NIPFFPDLQITDQCALLRLTWSEL was 3.12; that for NIPFFPDLQITDQPALLRLTWSEL was 1.87; that for NIPFFPDLQITDQTALLRLTWSEL was 2.38.
On to NIPFFPDLQITDQDALLRLTWSEL, for which the protein stability index is 1.57.
For NIPFFPDLQITDQAALLRLTWSEL, the protein stability index came out at 1.7.
The value for NIPFFPDLQITDQGALLRLTWSEL was 1.45.
For the variant NIPFFPDLQITDQKALLRLTWSEL, the protein stability index amounted to 2.13.
The value for NIPFFPDLFITDQVALLRLTWSEL was 2.56; that for NIPFFPDLKITDQVALLRLTWSEL was 1.89; that for NIPFFPDLWITDQVALLRLTWSEL was 2.96.
NIPFFPDLAITDQVALLRLTWSEL: the protein stability index was 2.86.
On to NIPFFPDLQITDQVHLLRLTWSEL, for which the protein stability index was determined as 1.57.
In the case of NIPFFPDLQITDQVCLLRLTWSEL, the protein stability index turned out to be 2.07.
With NIPFFPDLQITDQVSLLRLTWSEL, the protein stability index came to 2.
Under NIPFFDDLQITDQVALLRLTWSEL stands 2.23.
The value for NIPFFEDLQITDQVALLRLTWSEL was 2.5; that for NIPFFKDLQITDQVALLRLTWSEL was 2.
The value for NIPFFHDLQITDQVALLRLTWSEL was 2.31.
As to NIPFFQDLQITDQVALLRLTWSEL, the protein stability index stood at 2.32.
The value for NIPFFVDLQITDQVALLRLTWSEL was 3.65; that for NIPFWPDLQITDQVALLRLTWSEL was 1.68; that for NIPFIPDLQITDQVALLRLTWSEL was 2.26.
In the case of NIPFVPDLQITDQVALLRLTWSEL, the protein stability index amounted to 2.41.
In the case of NIPFPPDLQITDQVALLRLTWSEL, the protein stability index amounted to 1.49.
Under NIPFFPDLQITDQVATLRLTWSEL stands 3.48.
The value for NIPFFPDLQITDQVAQLRLTWSEL was 2.33.
Under NIPFFPDLQITDQVAILRLTWSEL stands 2.59.
For the variant NIPFFPDLQITDQVAHLRLTWSEL, the protein stability index is 1.67.
Under NIPFFPDLQITDQVALLRLTWSER stands 1.96; under NIPFFPDLQITDQVALLRLTWSEQ, 1.9.
For the variant NIPFFPDLQITDQVALLRLTWSEN, the protein stability index came to 1.97.
NIPFFPDLQITDQVALLRLTWSEE: the protein stability index amounted to 2.02.
On to NIPFFPDLQITDHVALLRLTWSEL, for which the protein stability index amounted to 3.09.
Under NIPFFPDLQITDGVALLRLTWSEL stands 1.29; under NIPFFPDLQITDLVALLRLTWSEL, 4.11.
On to NIPFFPDLQITDAVALLRLTWSEL, for which the protein stability index is 2.75.
As to NIPFFPDLQITDNVALLRLTWSEL, the protein stability index was 1.97.
Under NIPFFPTLQITDQVALLRLTWSEL stands 4.43; under NIPFFPGLQITDQVALLRLTWSEL, 3.35.
Regarding NIPFFPNLQITDQVALLRLTWSEL, the protein stability index was 2.78.
Under NIPFFPDLQITDQVALLRLTPSEL stands 2.42.
With NIPFFPDLQITDQVALLRLTGSEL, the protein stability index amounted to 2.08.
Under NIPFFPDLQITDQVALLRLTISEL stands 1.65.
Take NIPFFPDLQICDQVALLRLTWSEL: the protein stability index was 2.25.
Consider NIPFFPDYQITDQVALLRLTWSEL, for which the protein stability index was determined as 2.05.
Under NIPFFPDEQITDQVALLRLTWSEL stands 2.11; under NIPFFPDFQITDQVALLRLTWSEL, 3.11; under NIPFFPDMQITDQVALLRLTWSEL, 2.51.
For the variant NIPFFPDLQETDQVALLRLTWSEL, the protein stability index is 1.68.
Under NIPFFPDLQATDQVALLRLTWSEL stands 1.75.
With NIPFFPDLQQTDQVALLRLTWSEL, the protein stability index came out at 2.31.
Under NIPFFPDLQSTDQVALLRLTWSEL stands 2.09; under RIPFFPDLQITDQVALLRLTWSEL, 4.3.
The value for MIPFFPDLQITDQVALLRLTWSEL was 3.01; that for LIPFFPDLQITDQVALLRLTWSEL was 2.23.
As to NIPFFPDLQITDQVALLRFTWSEL, the protein stability index was found to be 2.73.
Turning to NIPFFPDLQITDQVALLRKTWSEL, the protein stability index was 2.12.
The value for NIPFFPDLQITDQVALLRTTWSEL was 2.23; that for NIPFFPDLQITDQVALLRHTWSEL was 1.53; that for NIPFFPDLQITDQVALLRATWSEL was 1.99.
The value for NIPFFPDLQITMQVALLRLTWSEL was 2.37; that for NIPFFPDLQITHQVALLRLTWSEL was 3.3; that for NIPFFPDLQITLQVALLRLTWSEL was 2.12.
Under NILFFPDLQITDQVALLRLTWSEL stands 1.92; under NIHFFPDLQITDQVALLRLTWSEL, 1.82; under NIPFFPDLQITDQVALLRLQWSEL, 2.08.
Take NIPFFPDLQITDQVALLRLWWSEL: the protein stability index worked out at 2.46.
For the variant NIPFFPDLQITDQVALLLLTWSEL, the protein stability index came to 2.89.
Under NIPFFPDLQITDQVALLHLTWSEL stands 1.39.
The value for NIPFFPDLQITDQVALLMLTWSEL was 2.28.
